# In US10918733B2, “Lipopeptide- and lipoprotein-conjugates and its use” (HELMHOLTZ-ZENTRUM FUER INFEKTIONSFORSCHUNG GMBH, priority 2009, dated 2021):
# B1: Ova: model antigen ovalbumin (Sigma Chemie) (protein, UniProt P01012 2-386, looked up)
# Ovalbumin: GSIGAASMEFCFDVFKELKVHHANENIFYCPIAIMSALAMVYLGAKDSTRTQINKVVRFDKLPGFGDSIEAQCGTSVNVHSSLRDILNQITKPNDVYSFSLASRLYAEERYPILPEYLQCVKELYRGGLEPINFQTAADQARELINSWVESQTNGIIRNVLQPSSVDSQTAMVLVNAIVFKGLWEKAFKDEDTQAMPFRVTEQESKPVQMMYQIGLFRVASMASEKMKILELPFASGTMSMLVLLPDEVSGLEQLESIINFEKLTEWTSSNVMEERKIKVYLPRMKMEEKYNLTSVLMAMGITDVFSSSANLSGISSAESLKISQAVHAAHAEINEAGREVVGSAEAGVDAASVSEEFRADHPFLFCIKHIATNAVLFFGRCVSP
# Experiments:
# Type in all cases: in vivo, C57BL6 mice
# [1] = tested on: Ova-specific IgG1 antibodies; test: Serum Ova-specific antibody titers after immunization (ELISA); details: i.n.; by the end of the immunization protocol
# Protocol: (§1) Experimental protocol 1: six-eight weeks-old female C57BL6 mice were purchased from Harlan Winkelmann GmbH (Borchen, Germany) and treated in accordance with local and European Community guidelines. Groups of 5 mice each were immunized on day 1, 14 and 28 with 30 μg of Ova (Sigma Chemie, Deisenhofen, Germany) or LPS-free Ova (EndoGrade Ovalbumin, Hyglos GmbH) alone, co-administered with 5 μg of BPPcysMPEG or with 5 to 10 μg of synthetic BPPcysOva^mPEG alone. For intranasal (i.n.) immunization, 10 μl were applied to each naris, whereas for the s.c. the compounds were resuspended in 50 μl of PBS per dose. Serum samples were collected at different time points (day 0, 13, 27 and 38) after immunization and stored at −20° C. prior to determination of Ova-specific antibodies. 96-well Nunc-Immuno MaxiSorp assay plates (Nunc, Roskilde, Denmark) were coated with 100 μl of Ova (Sigma Chemie, Deisenhofen, Germany) at 5 μg/ml in 0.05 M carbonate buffer (pH 8.2) per well. […] Endpoint titers were expressed as the reciprocal log2 of the last dilution, which gave an optical density at 405 nm of 0.1 units above the values of the negative controls after 15 to 30 min of incubation. […]
# FIG. 5: Humoral responses stimulated following vaccination using BPPcysOva^mPEG. […] At day 38 post primary immunisation, serum samples were collected and the IgG 1 and IgG2c titres of Ova-specific antibodies were determined by ELISA. […]
# [2] = tested on: Ova-specific secretory IgA; test: Local Ova-specific secretory IgA in lavages after i.n. immunization (ELISA); details: day 38
# Protocol: Experimental protocol: at day 38, mice were sacrificed and the final sampling was performed. Vaginal and lung lavages were obtained by flushing the organs with 1 ml of PBS supplemented with 50 mM EDTA, 0.1% BSA, and 10 mM PMSF. Lavages were then centrifuged to remove debris (10 min at 3000×g), and supernatant fluids were stored at −20° C. To determine the concentration of total IgA present in the lung and vaginal lavages, serial dilutions of the corresponding samples were incubated in microtiter plates that were previously coated with goat anti-mouse IgA (Sigma Chemie), as capture antibodies (100 μl/well). Serial dilutions of purified mouse IgA (Sigma Chemie) were used to generate a standard curve.
# To investigate the capacity of BPPcysOva^mPEG to stimulate local immune responses given by the i.n. route, we analyzed the production of Ova-specific secretory IgA in lung, nasal and vaginal lavages from immunized animals.
# FIG. 5: Humoral responses stimulated following vaccination using BPPcysOva^mPEG. […] At day 38 post primary immunisation, serum samples were collected and the IgG 1 and IgG2c titres of Ova-specific antibodies were determined by ELISA. […] At day 38 post primary immunisation broncho alveolar lavage (BAL), nasal lavages (NL) and Vaginal lavages (VL) were collected and the Ova-specific secretory IgA (sIgA) expression in samples of immunized mice were determined by ELISA.
# [3] = Tolerability during the immunization period; details: i.n. or s.c. immunization
# Protocol: as §1, with “well. Serial two-fold dilutions of sera or lavages in PBS with 1% BSA and 0.05% Tween 20 were added (100 μl/well), and plates incubated for 2 h at 37° C.” for “well.”
molecule,measurement,setting,value
B1,Ova-specific IgG1 endpoint titer in serum,[1],≤ 10^6
same,Ova-specific IgA in lung lavages,[2],failed to stimulate the production of detectable levels
same,adverse effect during the immunization period,[3],no adverse effect
